Experiments:
Test in all cases: SEC
[1] = molecular target: Parsonsia alboflavescens homospermidine synthase, single mutant D273N (VXXXN motif) (Parsonsia alboflavescens)
[2] = molecular target: Parsonsia alboflavescens homospermidine synthase, double mutant V269I D273N (IXXXN motif) (Parsonsia alboflavescens)
[3] = molecular target: Parsonsia alboflavescens homospermidine synthase, single mutant V269I (IXXXD motif) (Parsonsia alboflavescens)
SEC = molecular target: the molecule itself

Molecule “Parsonsia alboflavescens homospermidine synthase, single mutant D273N (VXXXN motif) (enzyme)” has a stoichiometry N [1] of 4.

For “Parsonsia alboflavescens homospermidine synthase, double mutant V269I D273N (IXXXN motif) (enzyme)”, the stoichiometry N [2] was 4.

“Parsonsia alboflavescens homospermidine synthase, single mutant V269I (IXXXD motif) (enzyme)” was tested, and the stoichiometry N [3] was 4.

B1: Parsonsia alboflavescens homospermidine synthase, wild type (VXXXD motif) (enzyme, UniProt A0A2P1M5T0 1-374, looked up)
chain: MGDDAIRQNFLDSARSNVFKALESLEGCKKIKGYDFNKGVNHRELLLSMVSTGFQASNLGDAIDVINQMRAWKLSDEPIPENCKEQEKDPKFRDSVRCKVFLGFTSNLISSGVRETIRYLAQHRMIDVLVTTAGGIEEDFIKCLAPTFKGDFSLPGAALRSKGLNRIGNLLVPNDNYCKFEDWIMPIFDKMLEEQLEEKVLWTPSRVIARLGKEINDESSYLYWAYKNKIPVYCPAITDGSIGDMLYFHSFRNPASLIVDIVQDVRNMDDEIVLAGLRKTGIIILGGGLPKHHICNANMMRNGADFAVFINTAQEFDGSDSGARPDEAISWGKIRSTAKHVKVHCDATIAFPLLVAETFAKGKSTWTKYLGYIY
With B1 the “stoichiometry N” value (SEC) was 4.
